This data set deals with the molecule itself. Nature of the data set: SEC; HiPrep 16/60 Sephacryl S-300 High-Resolution column; eluted in 20 mM Tris-HCl, 2 M NaCl, 10 mM MgCl2, pH 7.5, 0.5 mL/min, room temperature; standard proteins 12.5 to 678 kDa; oligomer size from 667 kDa against a 55 kDa monomer (SDS-PAGE). On the technique in general: In gel filtration, larger molecules generally elute earlier.

We go through one protein from article PMC8394153, “Novel Glutamate–Putrescine Ligase Activity in Haloferax mediterranei: A New Function for glnA-2 Gene” (Biomolecules, 2021).

One may read the stoichiometry N as the number of molecules, sites or subunits per partner or assembly.

B1: recombinant GlnA-2 protein (HFX_1688) from Haloferax mediterranei (enzyme, UniProt I3R584 1-446, looked up)
chain: MSDTSTVKSQCEDQNIDLIRLLYVTPSGVIQANTVDVSEVDAAVESGVTLSEVIQVYDAFACRNRNSRFDAVGEVHLCPDPETFRPLPYADRAGAMLCNIRTLDGEPWDVDSRSSLQSVERDLRAKGLSPQVAFESEFSLFSRDGDGKINRGDEAGAYRTESIRGTHDAILHIVDALKAQGIDVKKYHPEFSPGKHEIVTGHHTGLEAADEHLLLRETVKSVAEQDGYQATFLPKPFDDGTNGCHINVSLWNGENQFFDPNHGDISETARQFIAGVLDHAPAVLALTAPTVNSYSRLQPRHGAAGYICWGWLNREALIRVPAPAQGREADSTRIEFRGADNTANPYLGLIGLLAAGNDGIERELEPPEPVSVDPCDLTDAQRTAKGIKRLPQTLGEALDALETNEVLREALGPDLFDAYVEVKRNHWKLFTESAGAWQRERLRNLY
notes: GlnA-2 of Haloferax mediterranei R4 (ATCC 33500T), locus HFX_1688, annotated as glutamine synthetase; monomer 55 kDa by SDS-PAGE; also called glutamate–putrescine ligase; HFX_01688; source: heterologous expression in E. coli, purified (gel filtration); copies: 12
For the protein B1, the “stoichiometry N” value was determined as 12.
